B1: CPEB3 Ribozyme (parent)
chain: GGGGGCCACAGCAGAAGCGUUCACGUCGCGGCCCCUGUCAGAUUCUGGUGAAUCUGCGAAUUCUGCUGU

Variants of: B1
Assay: self-cleavage, relative activity (ratio to wild type); higher = more cleavage; co-transcriptional

In order of falling self-cleavage:
1. GGGGGCCACAGCAGAAGCGUUCACGUCGCGACCCCUGUCAGAUUCUGGUGAAUCUGCGAAUUCUGCUAU  1.03
2. GGGGGCCACAGCAGAAGCGUUCACGUCGCGACCCCUGUCAGAUUCUGGUGAAUCUGCGAAUUCUGCUCU  1.02
3. GGGGGCCACAGCAGAAGCGUUCACGUCGCGACCCCUGUCAGAUUCUGGUGAAUCUGCGAAUUCUGCUUU  1
4. GGGGGCCACAGCAGAAGCGUUCACGUCGCGACCCCUGUCAGAUUCUGGUGAAUCUGCGAAUUCUGCCGU  0.984
5. GGGGGCCACAGCAGAAGCGUUCACGUCGCGACCCCUGUCAGAUUCUGGUGAAUCUGCGAAUUCUGCAGU  0.951
6. GGGGGCCACAGCAGAAGCGUUCACGUCGCGACCCCUGUCAGAUUCUGUUGAAUCUGCGAAUUCUGCUGU  0.931
7. GGGGGCCACAGCAGAAGCGUUCACGUCGCGACCCCUGUCAGAUUCUUGUGAAUCUGCGAAUUCUGCUGU  0.915
8. GGGGGCCACAGCAGAAGCGUUCACGUCGCGACCCCUGUCAGAUUCUGGUGAAUCUUCGAAUUCUGCUGU  0.767
9. GGGGGCCACAGCAGAAGCGUUCACGUCGCGACCCCUGUCAGAUUCUGGUGAAUCUGCAAAUUCUGCUGU  0.741
10. GGGGGCCACAGCAGAAGCGUUCACGUCGCGACCCCUGUCAGAUUCUGGUGAAUCUGCGAAUUCUGGUGU  0.707
11. GGGGGCCACAGCAGAAGCGUUCACGUCGCGACCCCUGUCAGAUUCUGGUGAAUCUACGAAUUCUGCUGU  0.702
12. GGGGGCCACAGCAGAAGCGUUCACGUCGCGACCCCCGUCAGAUUCUGGUGAAUCUGCGAAUUCUGCUGU  0.669
13. GGGGGCCACAGCAGAAGCGUUCACGUCGCGACCCCUGUCAGACUCUGGUGAAUCUGCGAAUUCUGCUGU  0.601
14. GGGGGCCACAGCAGAAGCGUUCACGUCGCGACCCCUGUCAGAAUCUGGUGAAUCUGCGAAUUCUGCUGU  0.59
15. GGGGGCCACAGCAGAAGCGUUCACGUCGCGACUCCUGUCAGAUUCUGGUGAAUCUGCGAAUUCUGCUGU  0.587
16. GGGGGCCACAGCAGAAGCGUUCACGUCGCGACCCCUGUCAGAUUCUGGUGAACCUGCGAAUUCUGCUGU  0.58
17. GGGGGCCACAGCAGAAGCGUUCACGUCGCGACCCCUGUCAGAUUCUGGUGAAACUGCGAAUUCUGCUGU  0.554
18. GGGGGCCACAGCAGAAGCGUUCACGUCGCGACCCCUGUCAGAGUCUGGUGAAUCUGCGAAUUCUGCUGU  0.524
19. GGGGGCCACAGCAGAAGCGUUCACGUCGCGACCCCUGUCAGAUUCUGGUGAAUCUCCGAAUUCUGCUGU  0.523
20. GGGGGCCACAGCAGAAGCGUUCACGUCGCGCCGCCUGUCAGAUUCUGGUGAAUCUGCGAAUUCUGCUGU  0.443
21. GGGGGCCACAGCAGAAGCGUUCACGUCGCGACCCCUGUCAGAUUCUGGUGAAUCUGCGUAUUCUGCUGU  0.441
22. GGGGGCCACAGCAGAAGCGUUCACGUCGCGACCCCUGUCAGAUUCUGGUGAAUCUGCGAAGUCUGCUGU  0.381
23. GGGGGCCACAGCAGAAGCGUUCACGUCGCGACCCCUGUCAGAUUCUGGUGAAUCUGCGAAAUCUGCUGU  0.364
24. GGGGGCCACAGCAGAAGCGUUCACGUCGCGACCCCUGUCACAUUCUGGUGAAUCUGCGAAUUCUGCUGU  0.349
25. GGGGGCCACAGCAGAAGCGUUCACGUCGCGACCCCUGUCAGAUUCUGGUGAAUCUGUGAAUUCUGCUGU  0.34
26. GGGGGCCACAGCAGAAGCGUUCACGUCGCGCCACCUGUCAGAUUCUGGUGAAUCUGCGAAUUCUGCUGU  0.338
27. GGGGGCCACAGCAGAAGCGUUCACGUCGCGACCCCUGUCAGAUUCUGGUGAAUCUGAGAAUUCUGCUGU  0.307
28. GGGGGCCACAGCAGAAGCGUUCACGUCGCGCCCCCUGUCAGGUUCUGGUGAAUCUGCGAAUUCUGCUGU  0.277
29. GGGGGCCACAGCAGAAGCGUUCACGUCGCGACCCCGGUCAGAUUCUGGUGAAUCUGCGAAUUCUGCUGU  0.268
30. GGGGGCCACAGCAGAAGCGUUCACGUCGCGCCCCCUGUCAGAUUCUGGUGACUCUGCGAAUUCUGCUGU  0.266
31. GGGGGCCACAGCAGAAGCGUUCACGUCGCGACACCUGUCAGAUUCUGGUGAAUCUGCGAAUUCUGCUGU  0.266
32. GGGGGCCACAGCAGAAGCGUUCACGUCGCGCCCCCUGUCAGAUUCUGGUGAAUCUGCGAAUUCUGCUGU  0.255
33. GGGGGCCACAGCAGAAGCGUUCACGUCGCGCCCCCUGUCAGAUUCUGGUGAAUCUGCGUAUUCUGCUGU  0.24
34. GGGGGCCACAGCAGAAGCGUUCACGUCGCGCCCCCUGUCGGAUUCUGGUGAAUCUGCGAAUUCUGCUGU  0.229
35. GGGGGCCACAGCAGAAGCGUUCACGUCGCGACCCCAGUCAGAUUCUGGUGAAUCUGCGAAUUCUGCUGU  0.218
36. GGGGGCCACAGCAGAAGCGUUCACGUCGCGCCCCCUGUCAGAUUCUGGUGAGUCUGCGAAUUCUGCUGU  0.197
37. GGGGGCCACAGCAGAAGCGUUCACGUCGCGCCCCCUGUCAGAUUCUGGUGAUUCUGCGAAUUCUGCUGU  0.184
38. GGGGGCCACAGCAGAAGCGUUCACGUCGCGCCCCCUGUCAGUUUCUGGUGAAUCUGCGAAUUCUGCUGU  0.18
39. GGGGGCCACAGCAGAAGCGUUCACGUCGCGCCCCCUGUCAGAUUCUGGUGAAUCUGCGCAUUCUGCUGU  0.178
